In the supplement of paper PMC11246515:
± gives the standard deviation of the averaged measurements.

Test: total protein half-life in vivo (active degradation + dilution); higher = more stable protein
[1] = E. coli NCM3722 delta-clpP delta-lon delta-hslV, growth: N-lim chemostat, doubling time 6 h
[2] = E. coli NCM3722 delta-clpP, growth: N-lim chemostat, doubling time 6 h
[3] = E. coli NCM3722 delta-hslV, growth: N-lim chemostat, doubling time 6 h
[4] = E. coli NCM3722 delta-lon, growth: N-lim chemostat, doubling time 6 h
[5] = E. coli NCM3722 delta-smpB, growth: N-lim chemostat, doubling time 6 h
[6] = wild type E. coli NCM3722, growth: C-lim chemostat, doubling time 3 h
[7] = wild type E. coli NCM3722, growth: C-lim chemostat, doubling time 6 h
[8] = wild type E. coli NCM3722, growth: C-lim chemostat, doubling time 12 h
[9] = wild type E. coli NCM3722, growth: N-lim chemostat, doubling time 6 h
[10] = wild type E. coli NCM3722, growth: N-lim chemostat, doubling time 12 h
[11] = wild type E. coli NCM3722, growth: P-lim chemostat, doubling time 6 h
[12] = wild type E. coli NCM3722, growth: P-lim chemostat, doubling time 12 h

| Sequence | total protein half-life in vivo [1] [h] | total protein half-life in vivo [2] [h] | total protein half-life in vivo [3] [h] | total protein half-life in vivo [4] [h] | total protein half-life in vivo [5] [h] | total protein half-life in vivo [6] [h] | total protein half-life in vivo [7] [h] | total protein half-life in vivo [8] [h] | total protein half-life in vivo [9] [h] | total protein half-life in vivo [10] [h] | total protein half-life in vivo [11] [h] | total protein half-life in vivo [12] [h] |
| --- | --- | --- | --- | --- | --- | --- | --- | --- | --- | --- | --- | --- |
| MVKERKTELVEGFRHSVPYINTHRGKTFVIMLGGEAIEHENFSSIVNDIGLLHSLGIRLVVVYGARPQIDANLAAHHHEPLYHKNIRVTDAKTLELVKQAAGTLQLDITARLSMSLNNTPLQGAHINVVSGNFIIAQPLGVDDGVDYCHSGRIRRIDEDAIHRQLDSGAIVLMGPVAVSVTGESFNLTSEEIATQLAIKLKAEKMIGFCSSQGVTNDDGDIVSELFPNEAQARVEAQEEKGDYNSGTVRFLRGAVKACRSGVRRCHLISYQEDGALLQELFSRDGIGTQIVMESAEQIRRATINDIGGILELIRPLEQQGILVRRSREQLEMEIDKFTIIQRDNTTIACAALYPFPEEKIGEMACVAVHPDYRSSSRGEVLLERIAAQAKQSGLSKLFVLTTRSIHWFQERGFTPVDIDLLPESKKQLYNYQRKSKVLMADLG [P0A6C5] | 4.95 ± 0.5 | 3.02 ± 0.23 | 2.23 ± 0.15 | 3.628 ± 0.028 | 1.13 ± 0.066 | 1.99 ± 0.036 | 3.29 ± 0.41 | 5.24 ± 0.21 | 2.59 ± 0.25 | 4.01 ± 0.54 | 4.56 ± 0.38 | 8.35 ± 0.32 |
| MTQVAKKILVTCALPYANGSIHLGHMLEHIQADVWVRYQRMRGHEVNFICADDAHGTPIMLKAQQLGITPEQMIGEMSQEHQTDFAGFNISYDNYHSTHSEENRQLSELIYSRLKENGFIKNRTISQLYDPEKGMFLPDRFVKGTCPKCKSPDQYGDNCEVCGATYSPTELIEPKSVVSGATPVMRDSEHFFFDLPSFSEMLQAWTRSGALQEQVANKMQEWFESGLQQWDISRDAPYFGFEIPNAPGKYFYVWLDAPIGYMGSFKNLCDKRGDSVSFDEYWKKDSTAELYHFIGKDIVYFHSLFWPAMLEGSNFRKPSNLFVHGYVTVNGAKMSKSRGTFIKASTWLNHFDADSLRYYYTAKLSSRIDDIDLNLEDFVQRVNADIVNKVVNLASRNAGFINKRFDGVLASELADPQLYKTFTDAAEVIGEAWESREFGKAVREIMALADLANRYVDEQAPWVVAKQEGRDADLQAICSMGINLFRVLMTYLKPVLPKLTERAEAFLNTELTWDGIQQPLLGHKVNPFKALYNRIDMRQVEALVEASKEEVKAAAAPVTGPLADDPIQETITFDDFAKVDLRVALIENAEFVEGSDKLLRLTLDLGGEKRNVFSGIRSAYPDPQALIGRHTIMVANLAPRKMRFGISEGMVMAAGPGGKDIFLLSPDAGAKPGHQVK | 4.5 ± 0.63 | 4.18 ± 0.33 | 4.16 ± 0.055 | 4.3651 ± 0.0038 | 4.17 ± 0.25 | 3.09 ± 0.24 | 5.54 ± 0.16 | 9.62 ± 0.28 | 4.1 ± 0.34 | 6.3 ± 0.071 | 5.51 ± 0.33 | 11.4 ± 0.34 |
| MMKNILAIQSHVVYGHAGNSAAEFPMRRLGANVWPLNTVQFSNHTQYGKWTGCVMPPSHLTEIVQGIAAIDKLHTCDAVLSGYLGSAEQGEHILGIVRQVKAANPQAKYFCDPVMGHPEKGCIVAPGVAEFHVRHGLPASDIIAPNLVELEILCEHAVNNVEEAVLAARELIAQGPQIVLVKHLARAGYSRDRFEMLLVTADEAWHISRPLVDFGMRQPVGVGDVTSGLLLVKLLQGATLQEALEHVTAAVYEIMVTTKAMQEYELQVVAAQDRIAKPEHYFSATKL | – | – | 2.01 ± 0.45 | 1.63 ± 0.039 | 1.73 | 2.89 ± 0.033 | 5 ± 1.8 | 5.86 ± 0.53 | 1.832 ± 0.0067 | 2.45 | 4.49 ± 0.085 | 8.09 ± 0.6 |
| MPKLILASTSPWRRALLEKLQISFECAAPEVDETPRSDESPRQLVLRLAQEKAQSLASRYPDHLIIGSDQVCVLDGEITGKPLTEENARLQLRKASGNIVTFYTGLALFNSANGHLQTEVEPFDVHFRHLSEAEIDNYVRKEHPLHCAGSFKSEGFGITLFERLEGRDPNTLVGLPLIALCQMLRREGKNPLMG [P0A729] | 4.57 ± 0.6 | – | 4.118 ± 0.0072 | – | 3.68 ± 0.16 | 3.14 ± 0.5 | 5.174 ± 0.02 | 8.34 ± 0.7 | 3.77 ± 0.35 | 6.24 ± 0.41 | 5.45 ± 0.28 | 12.1 ± 0.56 |
| MKIISKMLVGALALAVTNVYAAELMTKAEFEKVESQYEKIGDISTSNEMSTADAKEDLIKKADEKGADVLVLTSGQTDNKIHGTANIYKKK | 5.25 ± 1.4 | 5.09 ± 0.88 | 5.83 ± 1 | 5.4 ± 0.39 | 4.12 ± 0.067 | 2.86 ± 0.34 | 4.78 ± 0.76 | 5.78 ± 0.63 | 5.28 ± 0.32 | 9.55 ± 3.1 | 4.64 ± 1.1 | 9.62 ± 0.2 |
| MFAEYGVLNYWTYLVGAIFIVLVPGPNTLFVLKNSVSSGMKGGYLAACGVFIGDAVLMFLAWAGVATLIKTTPILFNIVRYLGAFYLLYLGSKILYATLKGKNSEAKSDEPQYGAIFKRALILSLTNPKAILFYVSFFVQFIDVNAPHTGISFFILAATLELVSFCYLSFLIISGAFVTQYIRTKKKLAKVGNSLIGLMFVGFAARLATLQS | – | – | 4.19 ± 0.057 | 5.03 ± 0.45 | – | > 4 | – | – | – | 8.29 | – | – |
| MKRNLLSSAIIVAIMSLGLTGCDDKKAETETLPPANSQPAAPAPEAKPTEAPVAKAEAKPETPAQPVVDEQAVFDEKMDVYIKCYNKLQIPVQRSLARYADWLKDFKQGPTGEERTVYGIYGISESNLAECEKGVKSAVALTPALQPIDGVAVSYIDAAVALGNTINEMDKYYTQENYKDDAFAKGKTLHQTFLKNLEAFEPVAESYHAAIQEINDKRQLAELKNIEEREGKTFHYYSLAVMISAKQINNLISQDKFDAEAAMKKVSELETLVAQAKEADKGGMNFSFINSAGQYQLEAKKYVRRIRDKVPYSDWDKEQLQDANSSWMVEDSFPRALREYNEMVDDYNSLR | 6 | – | – | – | 5.67 ± 0.5 | – | 6.58 | – | 6.45 | 10.5 | 5.81 ± 0.094 | 10 |
